From article PMC5509742, “Structure of polyhydroxyalkanoate (PHA) synthase PhaC from Chromobacterium sp. USM2, producing biodegradable plastics” (Scientific Reports, 2017) come the findings set out here.

Data set [1] concerns the molecule itself. The data set is described as follows: AUC; sedimentation velocity, 20 °C, 20 µM PhaCCs-CAT without DL-3HB-CoA, 10 mM Tris-HCl (pH 8.0), 100 mM NaCl, 3 mM β-ME; monomer to dimer.
Data set [2] concerns the molecule itself. The data set is described as follows: AUC; sedimentation velocity, 20 °C, 20,000 rpm, 5 µM full-length PhaCCs with 50 µM DL-3HB-CoA (10-fold molar ratio), 10 mM Tris-HCl (pH 8.0), 100 mM NaCl, 3 mM β-ME.
Data set [3] deals with the molecule itself. The data set is described as follows: AUC; sedimentation velocity, 20 °C, 20,000 rpm, 5 µM full-length PhaCCs without substrate, 10 mM Tris-HCl (pH 8.0), 100 mM NaCl, 3 mM β-ME; monomer to dimer.

B1: catalytic domain of PhaC from Chromobacterium sp. USM2 (residues 175-567) (domain or fragment)
chain: not shown
notes: two additional vector-derived residues (Gly-Pro) identified at the N-terminus after PreScission cleavage; Class I PHA synthase PhaC, Chromobacterium sp; USM2, C-terminal catalytic (CAT) domain, residues 175-567 (1179 nucleotides, calc. 43.8 kDa); Cloned into the His-fusion vector pET47b(+); the His-tag was removed with PreScission protease; also called PhaCCs-CAT; mol A; source: E. coli Rosetta 2 …
Regarding B1, the “stoichiometry N” value in data set [1] worked out at 2.

B2: PHA synthase PhaC from Chromobacterium sp. USM2, full-length (enzyme)
chain: not shown
notes: two additional vector-derived residues (Gly-Pro) identified at the N-terminus after PreScission cleavage; Class I PHA synthase PhaC, Chromobacterium sp; USM2; full-length gene of 1704 nucleotides, calc; 63.4 kDa; Cloned into the His-fusion vector pET47b(+); the His-tag was removed with PreScission protease; also called PhaCCs; full-length PhaCCs; source: E. coli Rosetta 2 (DE3), purified (Ni-NTA, …)
For B2, the “stoichiometry N” value in data set [2] was around 4; in data set [3], 2.

By stoichiometry N is commonly meant a count of units in the complex or per binding partner.
